Measured values: publication PMC9018708

Experiments:
[1] = molecular target: Heparin Binding EGF Like Growth Factor (DT receptor) on Vero cells (African green monkey (endogenous in Vero))
[2] = molecular target: Heparin Binding EGF Like Growth Factor, endogenous on ARN8 cells (human (endogenous in ARN8)) (UniProt Q99075)
[3] = molecular target: human Heparin Binding EGF Like Growth Factor, overexpressed on ARN8 HBEGFKO cells (human) (UniProt Q99075)
[4] = molecular target: Heparin Binding EGF Like Growth Factor (DT receptor) on Vero cells (African green monkey (endogenous in Vero)); remark: listed apart in the source

Substance	EC50 of toxicity toward Vero cells (dose titration) [1] [nM]	sensitivity (EC50), dose titration on WT ARN8 cells (HBEGFKO cells: 245 nM) [2] [nM]	sensitivity (EC50), dose titration on +HBEGF ARN8 cells [3] [nM]	EC50 of inhibition of protein synthesis (nLucP assay) in Vero cells, overnight (18 h) incubation [4] [nM]	DT sensitivity (EC50), dose titration on WT ARN8 cells (HBEGFKO cells: N/A) [2] [nM]	DT sensitivity (EC50), dose titration on +HBEGF ARN8 cells [3] [nM]	sensitivity (EC50), dose titration on WT ARN8 cells (HBEGFKO cells: 55 nM) [2] [nM]
DT(ATR), DT chimera with the R domain of Albireti Toxin	12	169	608				
Diphtheria toxin (from UniProt P00588 33-567) (natural protein)				0.00015	0.026	0.00043	
DT(PTR), DT chimera with the R domain of Peptono Toxin	7		50				25
